Substrate in the data set: CN1/C(=C/c2cc[n+](CCCCCC(=O)NCCOCCOCCOCCNCc3c[nH]c4nc(N)[nH]c(=O)c34)c3ccccc23)Sc2ccccc21
Nature of the data set: Estimation of PreQ1-TO substrate kinetics with ECY-A1 catalyzed by TGT. It counts as biochemical, E. coli. The following applies: other: estimated from initial rates by fluorescence, 10 μM ECY-A1, 100 nM TGT, 37° C. Here is the method: Estimation of PreQ1-TO substrate kinetics with ECY-A1. An estimation of PreQ1-TO substrate kinetics with ECY-A 1 was performed under similar concentrations and conditions to that found from previous kinetic analyses using radiolabeled substrates.^2 A triplicate set of 20 μL reactions was analyzed using a Tecan Saphire-II plate reader in a Greiner 384 well flat bottom plate (VWR, CAT# 89089−584). Each well was prepped with 10 μM ECY-A 1 and a variable amount (from 100 μM to 10 nM in serial ⅓ dilutions) of PreQ1-TO in TGT reaction buffer. The plate was covered and allowed to warm up to 37° C. for 10 minutes. […] Each well was then covered with 10 μL of light mineral oil (to prevent evaporation of water) and the plate was immediately subjected to a fluorescence reading for the first kinetic time point at 37° C. Each well was monitored with an excitation of 501 nm and emission of 531. […] The gain was held fixed and the integration time set to 1 second with 10 reads averaged to each data point collected. The sample was monitored for 30 minutes at 37° C. with a reading taken every 2 minutes. The data was worked up using an ECY-A1-PreQ1-TO calibration curve to convert fluorescence into concentration of product in each sample for each time point to achieve an estimation of the initial rate of each reaction in M^−1/s^−1. […] This curve was analyzed with Graph Pad Prism v. […]

Drawing on patent US11267842B2, “Enzymatic modification of nucleic acids” (The Regents of the University of California, priority 2015, dated 2022), this text covers Km and kcat for one protein.

B1: bacterial (E.coli) tRNA guanine transglycosylase (TGT) (Escherichia coli K-12) (protein)
chain: MKFELDTTDGRARRGRLVFDRGVVETPCFMPVGTYGTVKGMTPEEVEATGAQIILGNTFHLWLRPGQEIMKLHGDLHDFMQWKGPILTDSGGFQVFSLGDIRKITEQGVHFRNPINGDPIFLDPEKSMEIQYDLGSDIVMIFDECTPYPADWDYAKRSMEMSLRWAKRSRERFDSLGNKNALFGIIQGSVYEDLRDISVKGLVDIGFDGYAVGGLAVGEPKADMHRILEHVCPQIPADKPRYLMGVGKPEDLVEGVRRGIDMFDCVMPTRNARNGHLFVTDGVVKIRNAKYKSDTGPLDPECDCYTCRNYSRAYLHHLDRCNEILGARLNTIHNLRYYQRLMAGLRKAIEEGKLESFVTDFYQRQGREVPPLNVDHHHHHH
notes: His6 (C); made in house; host or cells: E. coli BL21
The Km is the substrate concentration at which the rate is half of its maximum. Broadly, the kcat is the maximal rate divided by the concentration of active sites. Regarding B1, the Km is 9.8 µM and the kcat was 0.0016 s⁻¹.
